These results are taken from the nanobody polyreactivity screen of Harvey et al. (2022).

The nature of the series: yeast display, Sf9 membrane polyspecificity reagent, FACS + sequencing; frameworks hold sequencing errors. The method in brief:
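Nanobodies from a synthetic yeast display library (Saccharomyces cerevisiae BJ5465), induced 36–48 hours with galactose, were stained 1 hour at 4 °C with 10% biotinylated, detergent-solubilized Sf9 membrane reagent, enriched on streptavidin microbeads, then FACS-sorted. Anti-HA (expression) and streptavidin (reagent binding) fluorescence set low and high (top ~1%) gates. Polyreactivity labels come from the gate of origin. Genes were colony-PCR amplified, MiSeq 2 × 250 sequenced and filtered by CDR length.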
For “QVQLVESWGGLVQAGGSLRLSCAASGIIFRYYAIGWYRKAPGKERELVAAISRSGARTYYADSVKGRFTISRDNAKNTVYLQMNSLKPEDTAVYYCATEPTSGRFYYWGQGTQVTVSS”, the “polyreactivity (PSR sort gate)” value is given as “high polyreactivity”.

As to “QVQLVESWGGLVQAGGSLRLSCAASGRIFDRYAMGWYRQAPGKERELVASISSGGSTYYADSVKGRFTISRDNAKNTVYLQMNSLKPEDTAVYYCNAEARSRRYRYEYWGQGTQVTVSS”, the “polyreactivity (PSR sort gate)” value is “high polyreactivity”.

In the case of “QVQLVESWGGLVQAGGSLRLSCAASGRIFSYYAMGWYRQAPGKERELVAAISRTGGTTYYADSVKGRFTISRDNAKNTVYLQMNSLKPEDTAVYYCNAVKAPYLRYDYWGQGTQVTVSS”, the “polyreactivity (PSR sort gate)” value is reported as “high polyreactivity”.

In the case of “QVQLVESWGGLVQAGGSLRLSCAASGRIFYGYAMAWYRQAPGKEREFVAAITVSAGSTYYADSVKGRFTISRDNAKNTVYLQMNSLKPEDTEVYYCAAKRYVYTSYRFVYWGQGTQVTVSS”, the “polyreactivity (PSR sort gate)” value is “low polyreactivity”.

As to “QVQLVESWGGLVQAGGSLRLSCAASGSIFDVNAMGWYRQAPGKERELVAAISDSGGSTYYADSVKGRFTISRDNAKNTVYLQMNSLKPEDTAVYYCNADWSWYNYYDFDYWGQGTQVTVSS”, the “polyreactivity (PSR sort gate)” value is “low polyreactivity”.

Take “QVQLVESWGGLVQAGGSLRLSCAASGSIFRGYAMGWYRQAPGKGRELVAAISWSGASTYYADSVKGRFTISRDNAKNTVYLKMNSLKPEDTAVYYCAAVQWTGYPFDYWGQGTQVTVSS”: the “polyreactivity (PSR sort gate)” value is “high polyreactivity”.

With “QVQLVESWGGLVQAGGSLRLSCAASGSTFASYVMGWSRQAPGKERELVAAISRSGGSTYYADSVKGRFTISRDNAKYTVYLQMNSLKPEDTAVYYCNAPYLIYKKGRYDYWGQGTQVTVSS”, the “polyreactivity (PSR sort gate)” value is reported as “high polyreactivity”.

Regarding “QVQLVESWGGLVQAGGSLRLSCAASGSTFVINAMGWYSQAPGKERELVAAITWGGGRTYYADSVKGRFTISRDNAKNTVYLQMNSLKPEDTAVYYCAAVGSGWKGDYWGQGTQVTVSS”, the “polyreactivity (PSR sort gate)” value is “low polyreactivity”.

Take “QVQLVESWGGLVQAGGSLRLSCAASGSTFVVIAMGWYRLAPGKERELVAAISTSGGTTYYADSVKGRFTISRDNAKNTVYLQMNSLKPEDTAVYYCAAGGKKRDDYWGQGTQVTVSS”: the “polyreactivity (PSR sort gate)” value is “high polyreactivity”.

Take “QVQLVESWGGLVQAGGSLRLSCAASGSTLYQYDMGWYRHAPGKEREYLAAITTYGDSTYYADSVKGRFTISRDNAKNTVYLQMNSLKPEDTAVYYCNADVFKTVFYIDRYYYWGQGTQVTVSS”: the “polyreactivity (PSR sort gate)” value is on record as “low polyreactivity”.

For the sequence “QVQLVESWGGLVQAGGTLRLSCAPSGYIFYFNDMGCYIQAPGKERELVAAITWSGTGTYYADSVKGRFTISRDNAKNTVYLQMNSLKPEDTAVYYCAAREWTSQDRQHNYWGQGTQVTVSS”, the “polyreactivity (PSR sort gate)” value was “low polyreactivity”.

For “QVQLVETAGGLVQAGGSLRLSCAASGSTFYTNAMGWYRQAPGKERELVAAISGSGGSTYYADSVKGRFTISRDNAKNTVYLQMISLKPEDTAVYNCAARSRYYDTRFDYWGQGTQVTVSS”, the “polyreactivity (PSR sort gate)” value was “low polyreactivity”.

As for “QVQLVETAGGLVQAGGSLRLSCAASGSTIRYNVMGWYRQAPGKERELVAAITINGGSTNYADSVKGRFTISRDNAKNTVYLQMNSLKPEDTAVYYCAAAKSYRSGSWYEYWGQGTQVTVSS”, the “polyreactivity (PSR sort gate)” value was “high polyreactivity”.

On to “QVQLVETCGGIVQAGGSLRLSCAASGITFALYAMGWYRESPGKERELVAAISYSGGRSYYADSVKGRFTISRDHAQNTVNLQMNSLKPEDTAVYYCAAGGSGSGPYGYGYWGQGTKVTVSS”, for which the “polyreactivity (PSR sort gate)” value is recorded as “high polyreactivity”.

Consider “QVQLVETGAGLVQAGGSLRLSCAASGILLFNAMGWNTQPPGKERELVAAINSGGSTNYADSVKGRFTISRDNAKNTVYFQMNSLIPEDTAVYFCAKDTPFTLRVWAEGGMDYWGHGTQVTVSS”, for which the “polyreactivity (PSR sort gate)” value was “low polyreactivity”.

Turning to “QVQLVETGGGLDQAGGSLRLSCAASGRIFRKYVMGWYRQAPGKERELVAVISSGASTNYADSVKGRFTISRDNAKNTVYLQMNSLKPEDTAVYYCAKYGKYTWRQGGYWGQGTQVTVSS”, the “polyreactivity (PSR sort gate)” value was “high polyreactivity”.

Take “QVQLVETGGGLFQAGGSLRLSCAASGSTFVYYAMGWYRQPPGKERELVAAISSGGNTKYADSVKGRFTISRDNAKNTFYLQMNSLKPEDTAVYYCARETQSYYDHDYWGQGTQVTLSS”: the “polyreactivity (PSR sort gate)” value is on record as “low polyreactivity”.

For the sequence “QVQLVETGGGLVHAGGSLRLSCAASGRIFHINAMGWYRQAPGKERELVAAISSGGRTNYADSVKGRFTISRDNAKNTVYLQMNSLKPEDTAVYYCARQYTYGPNRWYGYWGQGTQVTVSS”, the “polyreactivity (PSR sort gate)” value is “high polyreactivity”.

With “QVQLVETGGGLVQAAGSLRLSSAASGSTFLANTMGWYRQEPGKEREFVAAITRRGGSTYYADSVKGRFTISRDNAKNTVYLQMNSLKPEDTAVYYCNADWYFQYPYDYWGQGTQVTVSS”, the “polyreactivity (PSR sort gate)” value was “low polyreactivity”.

With “QVQLVETGGGLVQAGGSFRLSCAASGGPFDTYVMGWYRQAPGKETELVAVITRGASTYYADSVKGRFTISRDNAKNTVYLQMNSLKPEETAVYYCAASFYSPDYYRFLYSFDYWGQGTQVTVSS”, the “polyreactivity (PSR sort gate)” value was “low polyreactivity”.

Turning to “QVQLVETGGGLVQAGGSHRLSCAASGSIFGKNVIGRYRQAPGKERELVAAITSGASTYYADSVKGRFTISRDNAKNTVYLQINSLKPEDTAVYYCAARRWRKYYSGYNYWGQGTQVSVSS”, the “polyreactivity (PSR sort gate)” value is recorded as “high polyreactivity”.

Turning to “QVQLVETGGGLVQAGGSHSLSCAASVRTVSSYARGWCRQAPGTERELVARITWSGGTYYADSVKGRFTISRDNAKNTVYLQMNRLKPEDTSVYYCAKRSYYWEYYYWGQGTQVTVSS”, the “polyreactivity (PSR sort gate)” value is “high polyreactivity”.

Consider “QVQLVETGGGLVQAGGSLGLSFAASGFIFSYYLMGWYRQAPGKERELVAAITTSGDSTYYADSVKGRFTISSDNAKNTVYLQINRLKPEDSAVYYCAADNYYETIWHYGYWGQGTQVTVSS”, for which the “polyreactivity (PSR sort gate)” value was “high polyreactivity”.

In the case of “QVQLVETGGGLVQAGGSLRISCAASGSTFVDYDMGWYRQAPGKERELVAGITTGGSTNYADSVKGRFTISRDNAKNTVYLQMNSLKPEDTAVYYCNADSYPNLVPDYLYYWYEYWGQGTQVTVSS”, the “polyreactivity (PSR sort gate)” value is “low polyreactivity”.

“QVQLVETGGGLVQAGGSLRLICAASGSTFQPYAMGWYRQAPGKEREFVATISGSAGSTYYADSVKGRFKISRDNAKNTVYLQMNSLKPEDTAVYYCNADSGWFGYDYWGQGTQVTVSS”: the “polyreactivity (PSR sort gate)” value is given as “low polyreactivity”.

As for “QVQLVETGGGLVQAGGSLRLICAASGSTFQYYAMGWSRQAPGKERELVAAITHSGTRTYYADSVKGRFTISRDNAKNTVYLQMYRLKPEDTSVYYCAALYTWYRYYRLDYWGQGTQVTVSS”, the “polyreactivity (PSR sort gate)” value is recorded as “high polyreactivity”.

As for “QVQLVETGGGLVQAGGSLRLSCAASAFTFASYAMGWYRQAPGKEREFVAAITRSGGSTYYADSVKGRFTISRDNAKNTVYLQMNSLKPEDTAVYYGAAQYHGGISQRLYYWGQGTQVTVSS”, the “polyreactivity (PSR sort gate)” value is reported as “high polyreactivity”.

“QVQLVETGGGLVQAGGSLRLSCAASGFIFPIYAMGWYRQATGKERELVAVISGSGGSTYYADSVKGRFTISRDNAKNTVYLQMNSLKPEDTAVYYCAARGRNVAGYKGGYWGQGTQVTVSS”: the “polyreactivity (PSR sort gate)” value is on record as “low polyreactivity”.

For “QVQLVETGGGLVQAGGSLRLSCAASGFIFRYYAMGWYRPAPGKERELVAVISSNGARTSYADSVKGRFTISRDNAKNTVYLQMNSLKPEDTADYYCNARAWSRFPPVGHDYWGQGTQVTVSS”, the “polyreactivity (PSR sort gate)” value is given as “high polyreactivity”.

On to “QVQLVETGGGLVQAGGSLRLSCAASGFIFVDYAMGWYRPAPGKERELVAAITSNDDRTYYADSVKGRFTISRDNAKNTVYLQMNSLKPEDTAVYYCAAGGWGATADATFTYLYDYWGQGTQVTVSS”, for which the “polyreactivity (PSR sort gate)” value is “low polyreactivity”.

Take “QVQLVETGGGLVQAGGSLRLSCAASGFTFAKYAMGRYRQAPGKERELVAAISSIGGSTYYADSVKGRFTISRDNAKNSVYLQMNSLKPEDSAVYFCAAELYCGYYYWGQGTQVTVYS”: the “polyreactivity (PSR sort gate)” value is listed as “high polyreactivity”.

Turning to “QVQLVETGGGLVQAGGSLRLSCAASGFTFAPYVMGWSRQAPGKERELVAAINWSGTRTYYADSVKGRFTFSRDNAKNTVYLQMNSLKPEDTAVYYCAARSVTVSGSLQPKRRYGYWGQGTQVTVSS”, the “polyreactivity (PSR sort gate)” value is on record as “high polyreactivity”.

For the sequence “QVQLVETGGGLVQAGGSLRLSCAASGFTFFYYDMGWYRQAPGKERELVADITTGGSTNYADSVKGRFTISRDNAKNTVYFQMNSLKTEDTAVYYCAAATTYPYGYYYWGQGTEVTVSS”, the “polyreactivity (PSR sort gate)” value is “high polyreactivity”.

In the case of “QVQLVETGGGLVQAGGSLRLSCAASGFTFIDYTMGWYRQAPGKERELVARITDTGSTNYEDSVKGRFTISRDT”, the “polyreactivity (PSR sort gate)” value is “low polyreactivity”.

As to “QVQLVETGGGLVQAGGSLRLSCAASGFTFSFYTMGWYRQAPGKERELVAAISRRGGSTYYADSVKGRFTISRDNAKNTVYLQMNSLKPEDTAVYYCPTDHIPSVGDDYWGQGTQVTVSS”, the “polyreactivity (PSR sort gate)” value was “high polyreactivity”.

In the case of “QVQLVETGGGLVQAGGSLRLSCAASGIIFGGYDRGWYRQAPGKERELVAAISWSGGSTYYAASVKGRFTISRDNAKNTVYLEMNSLKPEDTAVYYCAAAYYAPTRDYYYWGQGTQVTVSS”, the “polyreactivity (PSR sort gate)” value is reported as “low polyreactivity”.

As to “QVQLVETGGGLVQAGGSLRLSCAASGITFFAYAMGWYRQAPGKERELVAAISTGGSTNYADSVKGRFTISRDNAKNTVYLQMNSLKPEDTAVYYCGSDRSDLAEEGYAGYDYWGQVTQVTVSS”, the “polyreactivity (PSR sort gate)” value is “low polyreactivity”.

In the case of “QVQLVETGGGLVQAGGSLRLSCAASGITFKNYAMGWYRQANGKERELVATINRGSRTNYADSVKGRFTISRDNAKNTVYLQMNSLKPEDTAVYYCNVDQANYRWVPWEMDYWGQGSQVTVSS”, the “polyreactivity (PSR sort gate)” value is given as “low polyreactivity”.

As to “QVQLVETGGGLVQAGGSLRLSCAASGLIFSYKAMGWYRQAPGKERELVGAISRGGSTYYADSVKGRFTISRDNAKNTVYLQMNSLKRVDTAVYYCAADFYGWVDYWGQGTQVTVSS”, the “polyreactivity (PSR sort gate)” value is “high polyreactivity”.

In the case of “QVQLVETGGGLVQAGGSLRLSCAASGLTIHPYAKGCYRQAPGKERELVAAISSRGTSTYYADSVKGRFTISRDNAKNTVYLQMNSLKPEDTAVYYCAARHGPRAEAMYYWGQGTQVTVSS”, the “polyreactivity (PSR sort gate)” value is “high polyreactivity”.

As for “QVQLVETGGGLVQAGGSLRLSCAASGLTSLGNAMGGYRQAPGKERELVAAITRTVTSTYYADSVKGRFTISRDTAKNTVYLQMNSLKPEDTAVYYCAADWWYGYSNYDYWGQGTEVTVSS”, the “polyreactivity (PSR sort gate)” value is recorded as “low polyreactivity”.
